Data: US12077763B2, “RNA-based control of powdery mildew” (Greenlight Biosciences, Inc., priority 2021, dated 2024)

Tested on: E. necator
Assay: Leaf disc assay, dry inoculum (settling tower), decrease in disease severity / hyphal growth (Example 2)
Details: decrease in disease severity (hyphal growth) relative to untreated control, value ± SE; for % decrease =/− SE TP1: time point 1 (untreated control hyphal growth ≥50%); for % decrease =/− SE TP2: time point 2

Molecule | % decrease =/− SE TP1 [%] | % decrease =/− SE TP2 [%]
GS3360 (nucleic acid) sense: CAGUGCUCUCGCAGCAGGCCAUUUAGUCAAGAGCCAUAUGGCACAUAACAGAAGUGCUCCUAUUACAAGAAGUAAUACACCUGCUCAGAUUAGCACACACCCAUCAAUGAUAUCAACAAAUAGCAUGAGAGAAAAAUAUUGAGAUUUGAAAUUCUAAUUGUGUAAAUGAGCUCAGCUAUAUUGAAAAUAAAUUGGUAAUCUAAUAUAGAGGUAGAACUAGUUCGAUUUUUAUACUCAUUAAAAAAAGGAACUAAUAUUGGUAAAGGGUUAAGCUAUGAAAUUAGCUAUCCUUUUUUUUCCUAUUUAUUGAAAA antisense: UUUUCAAUAAAUAGGAAAAAAAAGGAUAGCUAAUUUCAUAGCUUAACCCUUUACCAAUAUUAGUUCCUUUUUUUAAUGAGUAUAAAAAUCGAACUAGUUCUACCUCUAUAUUAGAUUACCAAUUUAUUUUCAAUAUAGCUGAGCUCAUUUACACAAUUAGAAUUUCAAAUCUCAAUAUUUUUCUCUCAUGCUAUUUGUUGAUAUCAUUGAUGGGUGUGUGCUAAUCUGAGCAGGUGUAUUACUUCUUGUAAUAGGAGCACUUCUGUUAUGUGCCAUAUGGCUCUUGACUAAAUGGCCUGCUGCGAGAGCACUG | 36 ± 4 | 30 ± 5
GS3362 (nucleic acid) sense: UACCCGUCUGCAACAGGUACAGGUGGUUACGCAUCGCCAACAGGGACCAGUUACCCUACACCUACUGGAGGUUACUCUGAAGAGCCCUACCACUAUAAAGGUGUCAAGCUAGGUCAUUGAGAGGAUUGAGUUACGAAAUUUGAUUGCAGCCACGCCUUCGACUUCAACCGAGAAGAGUUCCAAUCUCCCUCUUAGACGCAGGACUACUCUCACGAUACUUCUGUCUCUACUUCUUCUCAUGAGCACGCUAAUACUCUCUAAGCCUCCGUUGAUGUGUUGAAAGACAGGCACCUCAGUUUUGAUUCUAUUCAGCUCGGCAAACAUGUUGUGUACAUUCAUAGACUGAAUUUCUUUUUUAUUAUUUUUUUCCAAAUACACUCUUCCUGGAAAAAGAAGCCCU antisense: AGGGCUUCUUUUUCCAGGAAGAGUGUAUUUGGAAAAAAAUAAUAAAAAAGAAAUUCAGUCUAUGAAUGUACACAACAUGUUUGCCGAGCUGAAUAGAAUCAAAACUGAGGUGCCUGUCUUUCAACACAUCAACGGAGGCUUAGAGAGUAUUAGCGUGCUCAUGAGAAGAAGUAGAGACAGAAGUAUCGUGAGAGUAGUCCUGCGUCUAAGAGGGAGAUUGGAACUCUUCUCGGUUGAAGUCGAAGGCGUGGCUGCAAUCAAAUUUCGUAACUCAAUCCUCUCAAUGACCUAGCUUGACACCUUUAUAGUGGUAGGGCUCUUCAGAGUAACCUCCAGUAGGUGUAGGGUAACUGGUCCCUGUUGGCGAUGCGUAACCACCUGUACCUGUUGCAGACGGGUA | 14 ± 4 | 
GS1799: dsRNA trigger SEQ ID NO 193; gene target Transposon Tf2-6 polyprotein (nucleic acid) DNA: GTAGCGAGGATGGACACTGGAGAACGGTTCGAAGTATACTTGACAAATTACGAAAAGCTGGGCTATATCTCGATATTGATAAATGTGAGTTTTTATGTAAAGAAGTCAAATATTTGGGGTTTATTGTGAAAGCTGGTAAAAGTGTGGCCGTTGATCAATCGAAGGTGAAGGCCATTCTGGAGTGGGAAGCGCCAACTACGGTTAGAGGGGTAAGATCATTTCTCGGATTCGCCAACTTCTATCGGTGCTTTATTAAGGGATTTTCCGACATTACATCACCCCTAGTTGCCCTGACGAAAAAAAAGGTGGAATGGCGATGGGGGCGTGACGAAAATGATGCGTTTGAAAGGCTCAAAGAAATATTCTCATCACAGCCTGTTTTAGCACAGTGGGATCCAGAGAAGGAAACAATTTTGGAAGCTGATAGTTCTGGCTTTGCAATTGGTGGTTGTCTCTCACAGGTGGATGAACACGGCCAAATAAGACCTGTGGCTTATTTCTCGAAGAAGTTAAATAGTGCCGAAGCTAATTACCCAATCCATGACAAAGAATTACACGCAATAGTCACGTGCTTAAAAGAATGGAAACCAGAGCTAAT | 16 ± 5 | 8 ± 6
GS3359 (nucleic acid) sense: UUGAGAACAUGACCGAGGCUACUCUAAUCUUAGAUAUGUUUCUCAACAACGAGGGAGCCUUUAACUAUCCUCACAUUUCCUUUCGCAAAAAUUUCCACCCUUUCAACUUCUCUAAAAACAAUUGAUUUGCUUAGACCAUAAGAAUAUUUCAAUAUGAUUAAAACUGAAGCUAAUGGUGAAGGAUUUGAUAUUUCUAUUCCAGAGGUAUCAGUAACUGAGGAACGAAAGCCAUUUGUGCAAAAGGAAGGAUAUCUCAAAUUAAAGCAAGCAGGAACUGCAAGAGCGAAUGAAGCCGCUUCAUACGAAGCUCCACGUGGCACUGUAAAAGGAGAUUACGCAUACCGUCAUCGACAUCAGACAGUACUCCAACAGCAUAUAGCCUUUUUUGAUCAUGAUAA antisense: UUAUCAUGAUCAAAAAAGGCUAUAUGCUGUUGGAGUACUGUCUGAUGUCGAUGACGGUAUGCGUAAUCUCCUUUUACAGUGCCACGUGGAGCUUCGUAUGAAGCGGCUUCAUUCGCUCUUGCAGUUCCUGCUUGCUUUAAUUUGAGAUAUCCUUCCUUUUGCACAAAUGGCUUUCGUUCCUCAGUUACUGAUACCUCUGGAAUAGAAAUAUCAAAUCCUUCACCAUUAGCUUCAGUUUUAAUCAUAUUGAAAUAUUCUUAUGGUCUAAGCAAAUCAAUUGUUUUUAGAGAAGUUGAAAGGGUGGAAAUUUUUGCGAAAGGAAAUGUGAGGAUAGUUAAAGGCUCCCUCGUUGUUGAGAAACAUAUCUAAGAUUAGAGUAGCCUCGGUCAUGUUCUCAA | 14 ± 4 | 
GS3445 (nucleic acid) sense: GAAGACCAAGCUAGAGCGAGUACAAAAACAUCCCGCAACAUAUCAAUGUCAUCUUUGCCCCAAAAAAUUUACUCGCGCCUAUAAUCUUCGCUCCCAUCUCCGAACGCAUACAAACGAGCGACCUUUUAUCUGUUCCAAGUGCACAAAAGCUUUUGCGCGUCAGCAUGAUCGAAAACGACAUGAGAGCCUACAUUCAGGUGAAAAAAGAUUUAUUUGUAGAGGAGAACUUAAAAAUGGUGGUCAUUGGGGCUGUGGCCGUCCCUUUGCUCGUGCAGAUGCCUUAAAUCGACAUUUCCGAUCGGAAGCAGGCCGAGCUUGCAUAAAUCCACUCAUAGAGGAAGACGAAUCUGAAAAUCUACGGCUAUGGAAUGAGAAACAAAUUCAAAAUAUUAAACAAA antisense: UUUGUUUAAUAUUUUGAAUUUGUUUCUCAUUCCAUAGCCGUAGAUUUUCAGAUUCGUCUUCCUCUAUGAGUGGAUUUAUGCAAGCUCGGCCUGCUUCCGAUCGGAAAUGUCGAUUUAAGGCAUCUGCACGAGCAAAGGGACGGCCACAGCCCCAAUGACCACCAUUUUUAAGUUCUCCUCUACAAAUAAAUCUUUUUUCACCUGAAUGUAGGCUCUCAUGUCGUUUUCGAUCAUGCUGACGCGCAAAAGCUUUUGUGCACUUGGAACAGAUAAAAGGUCGCUCGUUUGUAUGCGUUCGGAGAUGGGAGCGAAGAUUAUAGGCGCGAGUAAAUUUUUUGGGGCAAAGAUGACAUUGAUAUGUUGCGGGAUGUUUUUGUACUCGCUCUAGCUUGGUCUUC | 14 ± 9 | 16 ± 10
GS3358 (nucleic acid) sense: UUGGUACUAUGGCCAGGGUCAAUUCAAUUCAAUUUUUUUCUAUCAAAUAAAAUUAAAUCAAAAUAGUUUUCAAUCCAAUCUAACCCAAUCUUAAUCUUAAAAUGUAACUUCAAACAUUGUGAUUCAAGUACUAAUCACACGAGAAACUAGCAACGUUUGAUCUCGCUUUUCGAUCUACUUUAGGUACUUGAUGAAAUUUUCAAAGAUAUUUUGUCAUAAAACCAGUCACUAAGCUUCUUUGCUAUAUAAUUGCACUACGCGACGUCAACAGAUGCUCUUUUCACACUCCUAGUUAUUAAAGCAAUUGAAACAUCUUCUAACUAUAUACAACUUGAAUAUAACUCCAGAUUUGAAUAUAUUCUCCACCAAAAUUUAAUUAGGUUUGCAAUAAAUU antisense: AAUUUAUUGCAAACCUAAUUAAAUUUUGGUGGAGAAUAUAUUCAAAUCUGGAGUUAUAUUCAAGUUGUAUAUAGUUAGAAGAUGUUUCAAUUGCUUUAAUAACUAGGAGUGUGAAAAGAGCAUCUGUUGACGUCGCGUAGUGCAAUUAUAUAGCAAAGAAGCUUAGUGACUGGUUUUAUGACAAAAUAUCUUUGAAAAUUUCAUCAAGUACCUAAAGUAGAUCGAAAAGCGAGAUCAAACGUUGCUAGUUUCUCGUGUGAUUAGUACUUGAAUCACAAUGUUUGAAGUUACAUUUUAAGAUUAAGAUUGGGUUAGAUUGGAUUGAAAACUAUUUUGAUUUAAUUUUAUUUGAUAGAAAAAAAUUGAAUUGAAUUGACCCUGGCCAUAGUACCAA | 6 ± 4 | 
GS3361 (nucleic acid) sense: AAUAAGUGUCUGGAUUGUUGAAUGGGAUUCUUUUUAGUCGAUCAAUUUCAAUUAACUCAUAACGCAGAAAUUUCUUAAAAUUGAACGAUUUAUAGGAACCGAUGUGAAAUUUUCUUCAAUCUCCAUGUCAAUCGCAGAUGUGGGCAAAAAAGAUUGGGAAGAGAAUUCUUAGUUAUAUUUCAUUUGAAUACUAUUGGGGUAAUGCAUGUCCAAAGAGUCUCGUACCAAGAGAUACCUUUAUCUGGAAAUAAUUAGAAGAUUUACCCGUCUUACCUUGAUGAAUUGUGUGUUAGAGAUACACCAUGGCUAAGAUAUUAAUAUCUAUUUAGUUUGGGAAGUUGAUGACGAUACAUCACAGUUCUCUGUAAAUUUUGUUAUUUCCUCUAAUAUCAUUAA antisense: UUAAUGAUAUUAGAGGAAAUAACAAAAUUUACAGAGAACUGUGAUGUAUCGUCAUCAACUUCCCAAACUAAAUAGAUAUUAAUAUCUUAGCCAUGGUGUAUCUCUAACACACAAUUCAUCAAGGUAAGACGGGUAAAUCUUCUAAUUAUUUCCAGAUAAAGGUAUCUCUUGGUACGAGACUCUUUGGACAUGCAUUACCCCAAUAGUAUUCAAAUGAAAUAUAACUAAGAAUUCUCUUCCCAAUCUUUUUUGCCCACAUCUGCGAUUGACAUGGAGAUUGAAGAAAAUUUCACAUCGGUUCCUAUAAAUCGUUCAAUUUUAAGAAAUUUCUGCGUUAUGAGUUAAUUGAAAUUGAUCGACUAAAAAGAAUCCCAUUCAACAAUCCAGACACUUAUU | 16 ± 3 | 
